One data set concerns the target T1, CRP (Vibrio cholerae) (UniProt O34015).
T1 sequence: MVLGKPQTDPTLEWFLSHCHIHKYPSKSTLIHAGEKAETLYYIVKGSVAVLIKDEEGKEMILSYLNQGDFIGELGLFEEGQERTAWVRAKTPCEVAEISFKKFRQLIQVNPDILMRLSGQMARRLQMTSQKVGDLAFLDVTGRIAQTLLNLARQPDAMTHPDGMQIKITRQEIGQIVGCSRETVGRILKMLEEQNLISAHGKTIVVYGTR
The experiment in a line: EMSA. The conditions noted are these: 40 mM Tris acetate pH 7.9, 50 mM KCl, 5 mM MgCl2, 500 uM DTT, 12.5 ug/ml herring sperm DNA; EMSA 15 min at 37 C. On the technique in general: In EMSA bound probe runs differently from free probe, usually more slowly.

The next data set concerns the target T2, AphA (Vibrio cholerae) (UniProt Q9X399).
T2 sequence: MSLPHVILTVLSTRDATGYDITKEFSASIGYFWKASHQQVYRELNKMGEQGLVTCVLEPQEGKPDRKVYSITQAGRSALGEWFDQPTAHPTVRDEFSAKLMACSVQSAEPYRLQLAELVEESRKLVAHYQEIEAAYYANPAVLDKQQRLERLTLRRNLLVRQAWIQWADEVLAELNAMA
The experiment in a line: EMSA. The note with it: 40 mM Tris acetate pH 7.9, 50 mM KCl, 5 mM MgCl2, 500 uM DTT, 12.5 ug/ml herring sperm DNA; EMSA 15 min at 37 C.

Our source for the binding values is publication PMC6855506.

“AATTCTAGAGGAGCAACAAAAAATTGACGCTGTGATACTGGTCTCATAATCTGGCGCAAAAGTATTGCATCGATGTGAGATAAGTCCAGACTTATTTCTCTTCGTAAACTATCATTAGCTTCATAAAACAAGCA / AGCTTGCTTGTTTTATGAAGCTAATGATAGTTTACGAAGAGAAATAAGTCTGGACTTATCTCACATCGATGCAATACTTTTGCGCCAGATTATGAGACCAGTATCACAGCGTCAATTTTTTGTTGCTCCTCTAG [tfoX promoter wild type]”: the binding entry in the data set with CRP (Vibrio cholerae) and in the data set with AphA (Vibrio cholerae) was “binds” each time. Regarding “AATTCCATTTCCCAAAATCCTTTGCAAACCGTGAGAGGATGATGAATCAACTTGCATAGATGCTAACAGCTATCAAAAATGGCGTTGTTTTATAAAGAGAAGTAATGGAAATGA / AGCTTCATTTCCATTACTTCTCTTTATAAAACAACGCCATTTTTGATAGCTGTTAGCATCTATGCAAGTTGATTCATCATCCTCTCACGGTTTGCAAAGGATTTTGGGAAATGG [VC0857-VC0858 intergenic region]”, the binding entry in the data set with AphA (Vibrio cholerae) is given as “binds”.
